In US20060019335A1, “Compositions and methods to promote c-IAP autodegradation” (priority 2004, published 2006):
Entries after “also recorded” stand apart in the source; their conditions may differ.

B1: Smac: wild type (WT) Smac polypeptide from Homo sapiens, SEQ ID NO 1, 239 amino acids; second mitochondria-derived activator of caspase (protein, listed as Homo sapiens)
chain: MAALKSWLSRSVTSFFRYRQCLCVPVVANFKKRCFSELIRPWHKTVTIGFGVTLCAVPIAQKSEPHSLSSEALMRRAVSLVTDSTSTFLSQTTYALIEAITEYTKAVYTLTSLYRQYTSLLGKMNSEEEDEVWQVIIGARAEMTSKHQEYLKLETTWMTAVGLSEMAAEAAYQTGADQASITARNHIQLVKLQVEEVHQLSRKAETKLAEAQIEELRQKTQEEGEERAESEQEAYLRED
B2: Smac ΔA: Smac mutant lacking the initial Ala (Ala deletion mutant polypeptide), used as negative control (protein, UniProt Q9NR28 22-239, looked up, variant A1*)
Diablo IAP-binding …: LCVPVVANFKKRCFSELIRPWHKTVTIGFGVTLCVPIAQKSEPHSLSSEALMRRAVSLVTDSTSTFLSQTTYALIEAITEYTKAVYTLTSLYRQYTSLLGKMNSEEEDEVWQVIIGARAEMTSKHQEYLKLETTWMTAVGLSEMAAEAAYQTGADQASITARNHIQLVKLQVEEVHQLSRKAETKLAEAQIEELRQKTQEEGEERAESEQEAYLRED

Key:
c-IAP1 = assay: Co-transfection of HeLa cells with c-IAP1 and Smac plasmids, Western blot; type: cell-based, human; settings: for auto-ubiquitylation (E3 activity) of c-IAP1: co-transfection, FIG. 2A
Method: (§1) Transfection of cultured Cells—HeLa cells were grown in DMEM supplemented with 10% fetal bovine serum. Cells were seeded onto 6-well plates the day before transfection and transfected at 70% confluence by using Lipofectin combined with Plus reagent (Invitrogen) according to the manufacture's protocols. The IAP expression plasmids (3 μg each for c-IAP1, c-IAP2 and XIAP, and 250 ng each for Livin αand Livin β) together with 2.5 μg of Smac expression plasmids or pcDNA3.1(−) blank plasmid were used for single-well transfection in the absence of antibiotics. The cells were harvested 12 hours after the transfection and lysed with 0.5% CHAPS in 20 mM HEPES (pH 7.4), 10 mM KCl, 1 mM MgCl2 and 1 mM DTT. The lysates were centrifuged and the protein concentrations of the supernatants were quantified by the modified Bradford method (36).
(§2) Western Blot analysis—Proteins were resolved by SDS-PAGE and transferred to nitrocellulose filters. The filters were blocked with 5% milk and probed with antibodies as indicated. The signals were visualized with the enhanced chemiluminescence method.
(§3) To investigate the effect of Smac polypeptide on IAP protein levels, HeLa cells were transfected with the expression vectors for Smac and various IAPs. Briefly, HeLa cells were either transfected with IAP alone (Lane 2, 4 and 6), or together with Smac polypeptide (Lane 3, 5 and 7), or with Smac polypeptide alone (Lane 1). Equal amounts of cell lysates (7 μg) were immunoblotted with either the HRP-conjugated anti-FLAG antibody (shown in the top panel) in order to detect N-terminal 3×FLAG tagged IAPs, or with the anti-c-Myc antibody (bottom panel) to detect C-terminal c-Myc tagged Smac. The ubiquitin fusion technique was used to secure the production of mature Smac protein with the expected N-terminal AVPI motif (6, 37).
Because it is known that the His^588 residue in the RING finger domain is important for the IAP E3 activity (22), this residue was mutated to test whether Smac stimulated the ubiquitylation-mediated degradation of both c-IAP1 and c-IAP2. In each case, His^588 in c-IAP1 and His^574 in c-IAP2 was mutated to Ala (H588A mutant and H574A mutant, respectively) and the results are depicted in FIGS. 2A and 2B. The c-IAP1 WT or H588A mutant plasmids together with either Smac WT or Smac ΔA mutant, or with pcDNA3.1 (−) blank plasmid were co-transfected into HeLa cells (FIG. 2A). The c-IAP2 WT or H574A mutant plasmids together with either Smac WT or Smac ΔA mutant, or with pcDNA3.1 (−) blank plasmid were co-transfected into HeLa cells (FIG. 2B). As controls, HeLa cells were also transfected with either Smac WT or ΔA plasmids together with the blank p3×FLAG-CMV-7 plasmid. The transfected cells were cultivated either in the absence (see lanes 1-7 of FIGS. 2A and 2B) or in the presence (see lanes 8-14 of FIGS. 2A and 2B) of MG132. Equal amounts of soluble proteins (7 μg) from the transfected cells were immunoblotted with either the HRP-conjugated anti-FLAG antibody (see top panel of FIGS. 2A and 2B) to detect N-terminal 3×FLAG tagged IAPs, or with the anti-c-Myc antibody (see middle panel of FIGS. 2A and 2B) to detect C-terminal c-Myc tagged Smac. The anti-Actin immunoblotting results were to show equal protein loading (see bottom panel of FIGS. 2A and 2B).

XIAP = XIAP (Homo sapiens, UniProt P98170); assay: Co-transfection of HeLa cells with XIAP and Smac plasmids, Western blot; type: cell-based; design: expressed in transfected cells; host or cells: HeLa; settings: for XIAP ubiquitylation: co-transfection
Method: as §1, §2, §3
It is known that XIAP is ubiquitylated by its own E3 activity when expressed in HEK 293T cells and that this auto-ubiquitylation and subsequent degradation is stimulated by Reaper (26). In the current study, XIAP transiently expressed in HeLa cells was ubiquitylated as well; however, mono-ubiquitylation rather than poly-ubiquitylation of XIAP was the major product (see FIG. 3A). Briefly, XIAP WT or H467A mutant plasmids together with either Smac WT or ΔA, or with pcDNA3.1(−) blank plasmid, were co-transfected into the HeLa cells. As controls, HeLa cells were also transfected with either Smac WT or ΔA plasmids together with the blank p3×FLAG-CMV-7 plasmid. The transfected cells were cultivated either in the absence (see lanes 1-7 of FIG. 3A) or in the presence (see lanes 8-14 of FIG. 3A) of MG132. Equal amounts of soluble proteins (7 μg) from the transfected cells were immunoblotted with either the HRP-conjugated anti-FLAG antibody (see top panel of FIG. 3A) to detect N-terminal 3×FLAG tagged IAPs, or with the anti-c-Myc antibody (see middle panel of FIG. 3A) to detect Smac. The anti-Actin immunoblotting results were to show equal protein loading (see bottom panel of FIG. 3A).

[1] = mature Smac co-expressed, FIG. 1

XIAP, sequence (P98170 whole entry): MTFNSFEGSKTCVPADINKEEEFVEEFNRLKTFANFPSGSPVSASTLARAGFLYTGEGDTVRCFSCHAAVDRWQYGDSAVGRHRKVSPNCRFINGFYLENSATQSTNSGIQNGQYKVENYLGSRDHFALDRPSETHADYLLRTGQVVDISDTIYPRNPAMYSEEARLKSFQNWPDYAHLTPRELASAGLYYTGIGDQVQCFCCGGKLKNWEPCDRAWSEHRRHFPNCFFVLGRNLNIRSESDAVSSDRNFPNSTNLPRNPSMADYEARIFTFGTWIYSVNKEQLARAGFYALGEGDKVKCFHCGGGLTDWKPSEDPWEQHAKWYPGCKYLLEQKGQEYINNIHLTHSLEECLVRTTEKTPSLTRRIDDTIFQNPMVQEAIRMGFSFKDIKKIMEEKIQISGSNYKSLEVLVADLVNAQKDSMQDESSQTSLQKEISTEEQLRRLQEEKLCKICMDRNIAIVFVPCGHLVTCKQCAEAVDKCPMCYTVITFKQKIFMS

| Molecule | level of wild type c-IAP1 (c-IAP1; co-expression, absence of MG132, FIG. 2A) | levels of non-/mono-/di-ubiquitylated and highly ubiquitylated c-IAP1 forms (c-IAP1; co-expression, presence of MG132, FIG. 2A) | level of E3-negative H588A c-IAP1 (c-IAP1; either in the absence or in the presence of MG132) | protein level of c-IAP1 (c-IAP1; [1]) | level of XIAP (XIAP; co-expression, absence of MG132) | overall amount of XIAP (XIAP; co-transfected Smac, FIG. 3A) | XIAP ubiquitylation (XIAP; FIG. 3A) | protein level of XIAP (XIAP; [1]) | auto-ubiquitylation (E3 activity) of c-IAP1 (c-IAP1) | auto-ubiquitylation (E3 activity) of c-IAP1 (c-IAP1; listed as Smac mutant lacking the initial Ala residue) |
| --- | --- | --- | --- | --- | --- | --- | --- | --- | --- | --- |
| B1 | nearly complete disappearance of c-IAP1; also recorded: nearly non-detectable level | reduction in the level of non-ubiquitylated and mono-/di-ubiquitylated wild type c-IAP1 and a concomitant increase in the level of highly ubiquitylated c-IAP1 forms | did not cause a drastic change | significantly decreased | negligible effect | not significantly affected | still promoted XIAP ubiquitylation | unaffected | – | – |
| B2 | – | – | – | – | – | – | stimulated the auto-ubiquitylation of XIAP and Livin | – | did not enhance the auto-ubiquitylation of c-IAP1 | did not promote the E3 activity |
